Paper PMC3785238 (Cell, 2013)
Non-standard residues stand in square brackets, D forms with d. No end group written: not given here. pT = C[C@@H](OP(=O)(O)O)[C@H](N)C(=O)O; pS = N[C@@H](COP(=O)(O)O)C(=O)O

B1: mGluR5 peptide spanning the Homer/Pin1 binding site, bacterially expressed, phosphorylated at T1123 and S1126 (peptide)
chain: KELVAL[pT]PP[pS]PFRD

Columns and labels:
[1] = molecular target: T1, Homer1c, full-length, recombinant (UniProt Q9Z214 1-366); assay: ITC
T1 sequence (looked up): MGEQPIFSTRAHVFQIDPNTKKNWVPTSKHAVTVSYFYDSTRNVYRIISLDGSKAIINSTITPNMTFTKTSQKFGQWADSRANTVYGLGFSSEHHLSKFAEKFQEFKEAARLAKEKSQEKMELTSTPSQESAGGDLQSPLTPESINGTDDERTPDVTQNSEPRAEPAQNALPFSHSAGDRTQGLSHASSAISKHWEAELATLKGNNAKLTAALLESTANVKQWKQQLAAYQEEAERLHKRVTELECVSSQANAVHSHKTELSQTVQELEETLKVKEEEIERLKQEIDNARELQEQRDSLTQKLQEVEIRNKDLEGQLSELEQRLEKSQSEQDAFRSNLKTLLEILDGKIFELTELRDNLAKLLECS

[2] = molecular target: Homer1a, full length, recombinant; assay: ITC + NMR titration
[3] = molecular target: Homer1a, full length, recombinant; assay: ITC
[4] = molecular target: B1

How did the Kd [1] turn out when KELVALTPP[pS]PFRD [mGluR5 peptide spanning the Homer/Pin1 binding site, bacterially expressed, phosphorylated at S1126] was run?
Its Kd is 1910 ± 190 nM.

What about the “Kd, calc cis” value [2] of the same binder?
Its value is 670 nM.

And the “Kd, calc trans” value [2]?
The value was 2190 nM.

What about the Kd [3] of the same binder?
The Kd was 1560 ± 160 nM.

How did the “Kd, calc cis” value [2] turn out when B1 was run?
The value was 160 nM.

What about the “Kd, calc trans” value [2] of the same binder?
The value was 760 nM.

What about the Kd [3] of the same binder?
The Kd was 470 ± 100 nM.

How did the Kd [4] turn out when EKLPPGWEKRMSRSSGRVYYFNHITNASQWERPSG (domain or fragment, UniProt Q13526 5-39, looked up) [WW domain of Pin1] was run?
Its Kd is 10700 ± 200 nM.
